# B1: Poly C (12 C) (ssDNA)
# DNA: CCCCCCCCCCCC
# B2: Poly T (12 T) (ssDNA)
# DNA: TTTTTTTTTTTT
# B3: Poly A-ATCA (3A-ATCA-5A) (ssDNA)
# DNA: AAAATCAAAAAA
# B4: Poly A-ATCT (3A-ATCT-5A) (ssDNA)
# DNA: AAAATCTAAAAA
# B5: Poly A-ATCC (3A-ATCC-5A) (ssDNA)
# DNA: AAAATCCAAAAA
# B6: Poly A-ATCG (3A-ATCG-5A) (ssDNA)
# DNA: AAAATCGAAAAA
# B7: Poly A-TTCA (3A-TTCA-5A) (ssDNA)
# DNA: AAATTCAAAAAA
# B8: Poly A-TTCT (3A-TTCT-5A) (ssDNA)
# DNA: AAATTCTAAAAA
# B9: Poly A-TTCC (3A-TTCC-5A) (ssDNA)
# DNA: AAATTCCAAAAA
# B10: Poly T-C (5T-C-6T) (ssDNA)
# DNA: TTTTTCTTTTTT
# B11: Poly A-CTCA (3A-CTCA-5A) (ssDNA)
# DNA: AAACTCAAAAAA
# B12: Poly A-CTCT (3A-CTCT-5A) (ssDNA)
# DNA: AAACTCTAAAAA
# B13: Poly A-CTCC (3A-CTCC-5A) (ssDNA)
# DNA: AAACTCCAAAAA
# B14: Poly A-GTCA (3A-GTCA-5A) (ssDNA)
# DNA: AAAGTCAAAAAA
# B15: Poly A-GTCT (3A-GTCT-5A) (ssDNA)
# DNA: AAAGTCTAAAAA
# B16: Poly A-GTCC (3A-GTCC-5A) (ssDNA)
# DNA: AAAGTCCAAAAA
# B17: Poly A-GTCG (3A-GTCG-5A) (ssDNA)
# DNA: AAAGTCGAAAAA
# B18: Poly A-TC (4A-TC-6A) (ssDNA)
# DNA: AAAATCAAAAAA
# B19: Poly A-CC (4A-CC-6A) (ssDNA)
# DNA: AAAACCAAAAAA
# B20: SDHB hairpin RNA (UC in loop) (structured_RNA)
# RNA: GCCAUCUAUCGAUGGG
# B21: SDHB hairpin RNA, loop UC to AA (structured_RNA)
# RNA: GCCAUCUAAAGAUGGG
# B22: 1A-TTCA (ssDNA)
# DNA: ATTCA
# B23: TTCA-1A (ssDNA)
# DNA: TTCAA
# Molecular target: T1, A3A(E72A) (Homo sapiens, UniProt P31941 1-199, E72A)
# Experiment: fluorescence anisotropy; pH 6.0; 50 mM MES pH 6.0, 100 mM NaCl, 0.5 mM TCEP, room temperature overnight, 10 nM TAMRA-oligo; competition with 300 nM A3A(E72A); pH series: acetate 4.0-5.0, MES 5.5-6.5, HEPES 7.0-8.0, Tris 8.5-9.0
# Settings: protein: recombinant; tags: His6-SUMO removed by Ulp1 (untagged); label: 5' TAMRA
# T1 sequence (P31941 whole entry E72A): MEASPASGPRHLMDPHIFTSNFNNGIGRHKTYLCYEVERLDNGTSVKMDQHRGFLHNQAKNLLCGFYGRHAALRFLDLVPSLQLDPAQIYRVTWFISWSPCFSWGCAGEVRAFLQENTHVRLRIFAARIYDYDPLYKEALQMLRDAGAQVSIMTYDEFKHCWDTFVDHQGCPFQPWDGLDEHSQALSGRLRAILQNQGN
row,Binder,Kd [nM]
1,B1,1570 ± 117
2,B2,748 ± 44
3,B3,145 ± 2
4,B4,209 ± 5
5,B5,163 ± 3
6,B6,154 ± 2
7,B7,90 ± 1
8,B8,127 ± 2
9,B9,114 ± 2
10,B10,35 ± 2
11,B11,85 ± 1
12,B12,122 ± 2
13,B13,101 ± 2
14,B14,150 ± 3
15,B15,218 ± 7
16,B16,152 ± 2
17,B17,150 ± 3
18,B18,143 ± 4
19,B19,250 ± 14

# Same assay, conditions: protein: recombinant; tags: His6-SUMO removed by Ulp1 (untagged); label: TAMRA (5'); hairpin
row,Binder,Kd [nM]
1,B20,37
2,B21,202

# Molecular target: T1, A3A(E72A)
# Experiment: competition; vs TAMRA-3A-TTCA-6A; 50 mM MES pH 6.0, 100 mM NaCl, 0.5 mM TCEP, room temperature overnight, 10 nM TAMRA-oligo; competition with 300 nM A3A(E72A); pH series: acetate 4.0-5.0, MES 5.5-6.5, HEPES 7.0-8.0, Tris 8.5-9.0
# Settings: protein: recombinant; tags: His6-SUMO removed by Ulp1 (untagged); label: unlabeled
row,Binder,binding result
1,B22,no binding
2,B23,no binding

# Reference: paper PMC5951847, “Substrate sequence selectivity of APOBEC3A implicates intra-DNA interactions”
